The text below walks through data of patent US8409583B2, “Engineered versions of CgtB (β-1,3 galactosyltransferase) enzymes, with enhanced enzymatic properties” (National Research Council of Canada, priority 2007, dated 2013).

Common to all, as to type: biochemical
Data set [1] in a line: CgtB activity assay (capillary electrophoresis), acceptor GM2-FCHASE. The settings on record: for Relative activity (%): GM2-FCHASE at 0.5 mM, reference (100%) GM2-FCHASE for CgtBOH4384 and CgtB11168, GA2-FCHASE for CgtBHS:10, average of three experiments; for Specific Activity (mU/mg) on a given FCHASE-labeled acceptor: purified enzyme, 1 mM GM2-FCHASE. How it is done:
(§1) The oligosaccharide acceptors and the interferon alpha 2b (IFNα2b) peptide (VGVTETP, corresponding to positions 103-109 of the mature IFNα2b protein) were labeled with FCHASE as previously described (Wakarchuk, W. et al., J Biol. Chem. 271:19166-19173 (1996)). IFNα2b-FCHASE was purified by reverse-phase chromatography using a PRP-1 column (10×250 mm, Hamilton Company, Reno, Nev.) in 10 mM ammonium acetate pH 5.5 with a gradient of acetonitrile (0-100% over 4 column volumes). CgtB activity assays were done in cell lysates or using purified enzyme in 50 mM MES pH 6.0, 0.5 mM of FCHASE-acceptor (unless otherwise indicated), 10 mM MnCl2, 10 mM DTT, 1 mM UDP-Gal at 37° C. from 5 to 30 minutes. All reactions were stopped by addition of 10 μL of 50% acetonitrile, 10 mM EDTA and 1% SDS and were diluted with H2O to obtain 10-15 μM final concentration of the FCHASE-labeled compounds. The samples were analyzed by capillary electrophoresis as described previously (Wakarchuk, W. W. et al., Methods Mol. Biol. 213:263-274 (2003)) except that a P/ACE MDQ Capillary Electrophoresis System equipped with a Laser module 488 (Beckman Coulter, Calif.) was used. Quantitation of the reactions was performed by integration of the trace peaks using the MDQ 32 Karat software.

Data set [2] is described as follows: CgtB activity assay (capillary electrophoresis), acceptor GalNAcα-FCHASE. The settings on record: for Relative activity (%): GalNAcα-FCHASE at 0.5 mM, reference (100%) GM2-FCHASE for CgtBOH4384 and CgtB11168, GA2-FCHASE for CgtBHS:10, average of two experiments; for Specific Activity (mU/mg) on a given FCHASE-labeled acceptor: purified enzyme, 3 mM GalNAcα-FCHASE. How it is done:
as §1, with “CgtB activity assays were done in cell lysates or using purified enzyme in 50 mM MES pH 6.0, 0.5 mM of FCHASE-acceptor (unless otherwise indicated), 10 mM MnCl2, 10 mM DTT, 1 mM UDP-Gal at 37° C. from 5 to 30 minutes.” left out

The nature of data set [3]: CgtB activity assay (capillary electrophoresis), acceptor GalNAcβ-FCHASE. The settings on record: for Relative activity (%): GalNAcβ-FCHASE at 0.5 mM, reference (100%) GM2-FCHASE for CgtBOH4384 and CgtB11168, GA2-FCHASE for CgtBHS:10, average of three experiments; for Specific Activity (mU/mg) on a given FCHASE-labeled acceptor: purified enzyme, 3 mM GalNAcβ-FCHASE. How it is done: as §1, with “CgtB activity assays were done in cell lysates or using purified enzyme in 50 mM MES pH 6.0, 0.5 mM of FCHASE-acceptor (unless otherwise indicated), 10 mM MnCl2, 10 mM DTT, 1 mM UDP-Gal at 37° C. from 5 to 30 minutes.” left out

Data set [4] can be described thus: CgtB activity assay (capillary electrophoresis), acceptor lyso-GM2-FCHASE. The settings on record: lysoGM2-FCHASE at 0.5 mM; reference (100%) GM2-FCHASE for CgtBOH4384 and CgtB11168, GA2-FCHASE for CgtBHS:10; average of three experiments. How it is done: as §1
A short description of data set [5]: CgtB activity assay (capillary electrophoresis), acceptor GA2-FCHASE. The settings on record: GA2-FCHASE at 0.5 mM; reference (100%) GM2-FCHASE for CgtBOH4384 and CgtB11168, GA2-FCHASE for CgtBHS:10; average of two experiments. How it is done: as §1
The next data set has as its system IFNα2b[Tn]-FCHASE. Description: CgtB activity assay (capillary electrophoresis), glycopeptide acceptor IFNα2b[Tn]-FCHASE. The settings on record: purified enzyme; 1 mM IFNα2b[Tn]-FCHASE. How it is done: as §1
The IFNα2b protein was purchased from Cell Sciences (Canton, Mass.). […]

B1: CJL-20: Full length CgtB from C. jejuni NCTC 11168 fused to MalE at the N-terminus (protein)
chain: MSQISIILPTYNVEKYIARALESCINQTFKDIEIIVVDDCGNDKSIDIAKEYASKDDRIKIIHNEENLKLLRARYEGAKVATSPYIMFLDSDDYLELNACEECIKILDMGGGGKIDLLCFEAFITNAKKSIKKLNIKQGKYNNKEFTMQILKTKNPFWTMWAKIIKKDIYLKAFNMLNLKKEIKINMAEDALLYYPLTILSNEIFYLTQPLYTQHVNSNSITNNINSLEANIQEHKIVLNVLKSIKNKKTPLYFLIIYLLKIQLLKYEQNFNKRNINLIYYKINILYQKYQFKWKKFLYNLIP
modifications: left off: large carriers
notes: Full length CgtB from C. jejuni NCTC 11168 fused to MalE at the N-terminus
Consider B1, for which the “Relative activity (%)” value is reported as 100^4% in data set [1]; 3.0^3% in data set [2]; 50.5^4% in data set [3]; 606.2^4% in data set [4]; 8.8^3% in data set [5]. In addition, the entries for the “Specific Activity (mU/mg) on a given FCHASE-labeled acceptor” value in data set [1], in data set [2] and in data set [3] were 27 mU/mg, 13.6 mU/mg and 40.4 mU/mg, respectively.

B2: CJL-10: Full length CgtB β-1,3-galactosyltransferase from C. jejuni OH4384 fused to E. coli MalE (maltose binding protein) at the N-terminus (protein)
chain: MFKISIILPTYNVEQYIARAIESCINQTFKDIEIIVVDDCGNDNSINIAKEYSKKDKRIKIIHNEKNLGLLRARYEGVKVANSPYIMFLDPDDYLELNACEECIKILDEQDEVDLVFFNAIVESNVISYKKFDFNSGFYSKKEFVKKIIAKKNLYWTMWGKLIRKKLYLEAFASLRLEKDVKINMAEDVLLYYPMLSQAQKIAYMNCNLYHYVPNNNSICNTKNEVLVKNNIQELQLVLNYLRQNYILNKYCSVLYVLIKYLLYIQIYKIKRTKLMVTLLAKINILTLKILFKYKKFLKQC
modifications: left off: large carriers
Turning to B2, the “Relative activity (%)” value is given as 100^4% in data set [1]; 6.4^3% in data set [2]; 47.5^4% in data set [3]; 444^4% in data set [4]; 29^3% in data set [5]. For the same molecule, the “Specific Activity (mU/mg) on a given FCHASE-labeled acceptor” value is on record as 210 mU/mg in data set [1], 83.5 mU/mg with IFNα2b[Tn]-FCHASE, 158^1 mU/mg in data set [2] and 192 mU/mg in data set [3].
